For one substance, percent theoretical maximal response and peptide-protein ratio (peptide:protein) results are on record in patent US20100015130A1.

Assay [1] has as its target GSK3β as used in the surface plasmon resonance (SPR) binding assays (Homo sapiens (Human)) (UniProt P49841). Kind of assay: SPR, peptide at 25 µM on GSK3β. In general terms: In SPR one partner is held on a chip, and binding of the other changes the refractive index at the surface.
For assay [2] the target is unchanged. Kind of assay: SPR, stoichiometry inferred from the response.

Sequence of GSK3β as used in the surface plasmon resonance (SPR) binding assays (Homo sapiens (Human)) (P49841 whole entry, form in doubt): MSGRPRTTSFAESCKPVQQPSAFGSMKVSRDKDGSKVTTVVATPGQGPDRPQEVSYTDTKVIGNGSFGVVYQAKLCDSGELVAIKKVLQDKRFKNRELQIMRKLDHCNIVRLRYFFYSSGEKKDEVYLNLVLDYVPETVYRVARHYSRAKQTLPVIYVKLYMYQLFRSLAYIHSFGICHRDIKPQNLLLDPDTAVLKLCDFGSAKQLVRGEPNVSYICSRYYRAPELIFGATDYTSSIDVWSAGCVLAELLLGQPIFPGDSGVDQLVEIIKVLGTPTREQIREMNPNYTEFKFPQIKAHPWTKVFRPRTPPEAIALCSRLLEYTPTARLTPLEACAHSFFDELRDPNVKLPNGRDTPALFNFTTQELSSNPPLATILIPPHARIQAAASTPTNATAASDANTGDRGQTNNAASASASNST

Substance “L803-MTS (commercial GSK3β peptide inhibitor, Calbiochem)” had a percent theoretical maximal response in assay [1] of 259%. Also, in assay [2], the peptide-protein ratio (peptide:protein) was found to be 2.
